Experimental data published in patent US20190300590A1 (PROTAGONIST THERAPEUTICS, published 2019).
Bridges are numbered along the chain shown (N, C = ends). [ ]: non-standard residue; d: D form. NMeW = CN[C@@H](Cc1c[nH]c2ccccc12)C(=O)O; 1Nal = N[C@@H](Cc1cccc2ccccc12)C(=O)O; NMeH = CN[C@@H](Cc1c[nH]cn1)C(=O)O; AEA = NCCOCC(=O)O; βAla = NCCC(=O)O; Sar = CNCC(=O)O

T1: IL23R_huFC (human, UniProt Q5VWK5 24-353)
T1 sequence (looked up): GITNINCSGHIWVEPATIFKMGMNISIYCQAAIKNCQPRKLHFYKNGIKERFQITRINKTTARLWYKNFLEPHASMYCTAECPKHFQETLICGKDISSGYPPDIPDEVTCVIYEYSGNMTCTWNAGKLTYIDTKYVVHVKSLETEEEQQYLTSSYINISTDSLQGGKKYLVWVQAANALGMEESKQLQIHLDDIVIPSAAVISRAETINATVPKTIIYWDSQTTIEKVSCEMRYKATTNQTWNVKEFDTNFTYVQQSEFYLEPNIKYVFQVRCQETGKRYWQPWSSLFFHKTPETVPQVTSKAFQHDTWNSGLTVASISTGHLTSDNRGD


Molecular target: T1, IL23R_huFC
Test: IL23-IL23R competitive ELISA

| Binder | IC50 [µM] |
| --- | --- |
| CXDWVCYXHTF ([Sarc]; [1-Nal]; disulfide) [Hy-C-[Sarc]-DWVCY-[1-Nal]-HTF-OH] | > 1 |
| H-CGNWECYWHVYG-NH2 (disulfide 1-6 (inferred)) [Hy-CGNWECYWHVYG-NH2] | > 1 |
| KCADWVCYWHTFG (Ac-; [(D)Lys]; disulfide) [Ac-[(D)Lys]-CADWVCYWHTFG-OH] | > 1 |
| H-CETWECYWHSFS-NH2 (disulfide 1-6 (inferred)) [Hy-CETWECYWHSFS-NH2] | > 1 |
| CADWVCYXHTFX ([1-Nal]; [Sarc]; disulfide) [Hy-CADWVCY-[1-Nal]-HTF-[Sarc]-OH] | > 1 |
| H-CSDWECYWHIFG-NH2 (disulfide 1-6 (inferred)) [Hy-CSDWECYWHIFG-NH2] | > 1 |
| H-CADWVCY[1Nal]HTF-OH (disulfide 1-6 (inferred)) [Hy-CADWVCY-[1-Nal]-HTF-OH] | > 1 |
| Ac-CQTWQCYWR[Sar]NG[AEA][dK]-NH2 (disulfide 1-6; SMILES CC(=O)N[C@H]1CSSC[C@@H](C(=O)N[C@@H](Cc2ccc(O)cc2)C(=O)N[C@@H](Cc2c[nH]c3ccccc23)C(=O)N[C@@H](CCCNC(=N)N)C(=O)N(C)CC(=O)N[C@@H](CC(N)=O)C(=O)NCC(=O)NCCOCC(=O)N[C@H](CCCCN)C(N)=O)NC(=O)[C@H](CCC(N)=O)NC(=O)[C@H](Cc2c[nH]c3ccccc23)NC(=O)[C@H]([C@@H](C)O)NC(=O)[C@H](CCC(N)=O)NC1=O) [Ac-CQTWQCYWR-[Sarc]-NG-[AEA]-[(D)-Lys]-NH2] | > 1 |
| H-CRTWVCYWHVFG-NH2 (disulfide 1-6 (inferred)) [Hy-CRTWVCYWHVFG-NH2] | > 1 |
| H-CADWVCY[1Nal][NMeH]TF-OH (disulfide 1-6; SMILES CC(C)[C@@H]1NC(=O)[C@H](Cc2c[nH]c3ccccc23)NC(=O)[C@H](CC(=O)O)NC(=O)[C@H](C)NC(=O)[C@@H](N)CSSC[C@@H](C(=O)N[C@@H](Cc2ccc(O)cc2)C(=O)N[C@@H](Cc2cccc3ccccc23)C(=O)N(C)[C@@H](Cc2c[nH]cn2)C(=O)N[C@H](C(=O)N[C@@H](Cc2ccccc2)C(=O)O)[C@@H](C)O)NC1=O) [Hy-CADWVCY-[1-Nal]-[N-Me-His]-TF-OH] | > 1 |
| H-AADWCAYWCTFG-NH2 (disulfide 5-9 (inferred)) [Hy-AADWCAYWCTFG-NH2] | > 1 |
| H-ACDWCCYWCTFG-NH2 (disulfide (positions not given here); also: disulfide pairing not given here) [Hy-ACDWCCYWCTFG-NH2] | > 1 |
| H-CADWVCYWHT-NH2 (disulfide 1-6 (inferred)) [Hy-CADWVCYWHT-NH2] | > 1 |
| H-CKDWKCYWHIYG-NH2 (disulfide 1-6 (inferred)) [Hy-CKDWKCYWHIYG-NH2] | > 1 |
| CADWVCYXHTFG ([Tic]; -NH2; disulfide) [Hy-CADWVCY[Tic]-HTFG-NH2] | > 1 |
| H-CADWVCY[1Nal]HT[dF]-OH (disulfide 1-6 (inferred)) [Hy-CADWVCY-[1-Nal]-HT-[(D)Phe]-OH] | > 1 |
| H-CADWCCYWCTFG-NH2 (disulfide (positions not given here); also: disulfide pairing not given here) [Hy-CADWCCYWCTFG-NH2, listing 1 of 3 here] | > 1 |
| CADXVCYWHTFG (not fully specified; [1-BIP]; -NH2; disulfide) [Hy-CAD-[1-BIP]-VCYWHTFG-NH2] | > 1 |
| CADXVCYWHTFG ([Tic]; -NH2; disulfide) [Hy-CAD-[Tic]-VCYWHTFG-NH2] | > 1 |
| CADWXCYXHTF ([Sarc]; [1-Nal]; disulfide) [Hy-CADW-[Sarc]-CY-[1-Nal]-HTF-OH] | > 1 |

| Binder | IC50 [µM] |
| --- | --- |
| H-CHTWVCYWHEFS-NH2 (disulfide 1-6 (inferred)) [Hy-CHTWVCYWHEFS-NH2] | > 1 |
| CADWVCYXHTFG (not fully specified; [1-BIP]; -NH2; disulfide) [Hy-CADWVCY-[1-BIP]-HTFG-NH2] | > 1 |
| Ac-CADWVCY[1Nal]FTFG-NH2 (disulfide 1-6; SMILES CC(=O)N[C@H]1CSSC[C@@H](C(=O)N[C@@H](Cc2ccc(O)cc2)C(=O)N[C@@H](Cc2cccc3ccccc23)C(=O)N[C@@H](Cc2ccccc2)C(=O)N[C@H](C(=O)N[C@@H](Cc2ccccc2)C(=O)NCC(N)=O)[C@@H](C)O)NC(=O)[C@H](C(C)C)NC(=O)[C@H](Cc2c[nH]c3ccccc23)NC(=O)[C@H](CC(=O)O)NC(=O)[C@H](C)NC1=O) [Ac-CADWVCY-[1-Nal]-FTFG-NH2] | > 1 |
| Ac-CADWVCY[1Nal]H[dA]FG-NH2 (disulfide 1-6; SMILES CC(=O)N[C@H]1CSSC[C@@H](C(=O)N[C@@H](Cc2ccc(O)cc2)C(=O)N[C@@H](Cc2cccc3ccccc23)C(=O)N[C@@H](Cc2c[nH]cn2)C(=O)N[C@H](C)C(=O)N[C@@H](Cc2ccccc2)C(=O)NCC(N)=O)NC(=O)[C@H](C(C)C)NC(=O)[C@H](Cc2c[nH]c3ccccc23)NC(=O)[C@H](CC(=O)O)NC(=O)[C@H](C)NC1=O) [Ac-CADWVCY-[1-Nal]-H-[(D)Ala]-FG-NH2] | > 1 |
| Ac-CADWVCY[1Nal][dA]TFG-NH2 (disulfide 1-6; SMILES CC(=O)N[C@H]1CSSC[C@@H](C(=O)N[C@@H](Cc2ccc(O)cc2)C(=O)N[C@@H](Cc2cccc3ccccc23)C(=O)N[C@H](C)C(=O)N[C@H](C(=O)N[C@@H](Cc2ccccc2)C(=O)NCC(N)=O)[C@@H](C)O)NC(=O)[C@H](C(C)C)NC(=O)[C@H](Cc2c[nH]c3ccccc23)NC(=O)[C@H](CC(=O)O)NC(=O)[C@H](C)NC1=O) [Ac-CADWVCY-[1-Nal]-[(D)Ala]-TFG-NH2] | > 1 |
| Ac-CADWVCY[1Nal]H[βAla]FG-NH2 (disulfide 1-6; SMILES CC(=O)N[C@H]1CSSC[C@@H](C(=O)N[C@@H](Cc2ccc(O)cc2)C(=O)N[C@@H](Cc2cccc3ccccc23)C(=O)N[C@@H](Cc2c[nH]cn2)C(=O)NCCC(=O)N[C@@H](Cc2ccccc2)C(=O)NCC(N)=O)NC(=O)[C@H](C(C)C)NC(=O)[C@H](Cc2c[nH]c3ccccc23)NC(=O)[C@H](CC(=O)O)NC(=O)[C@H](C)NC1=O) [Ac-CADWVCY-[1-Nal]-H-[b-Ala]-FG-NH2] | > 1 |
| CADXVCYWHTFG ([1-Nal]; -NH2; disulfide) [Hy-CAD-[1-Nal]-VCYWHTFG-NH2] | > 1 |
| H-CSDWRCYWHVFG-NH2 (disulfide 1-6 (inferred)) [Hy-CSDWRCYWHVFG-NH2] | > 1 |
| H-CAD[NMeW]VCY[1Nal]HTF-OH (disulfide 1-6 (inferred)) [Hy-CAD-[N-Me-Trp]-VCY-[1-Nal]-HTF-OH] | > 1 |
| H-ACDWVCYWHTFG-NH2 (disulfide 2-6 (inferred)) [Hy-ACDWVCYWHTFG-NH2] | > 1 |
| H-CTDWVCYWHEYS-NH2 (disulfide 1-6 (inferred)) [Hy-CTDWVCYWHEYS-NH2] | > 1 |
| H-CQTWVCYWHTYG-NH2 (disulfide 1-6 (inferred)) [Hy-CQTWVCYWHTYG-NH2] | > 1 |
| H-CADWCCYWCTFG-NH2 (disulfide (positions not given here); also: disulfide pairing not given here) [Hy-CADWCCYWCTFG-NH2, listing 2 of 3 here] | > 1 |
| H-CADWVCYWHTF-NH2 (disulfide 1-6 (inferred)) [Hy-CADWVCYWHTF-NH2] | > 1 |
| H-CADWCCYWCTFG-NH2 (disulfide (positions not given here); also: disulfide pairing not given here) [Hy-CADWCCYWCTFG-NH2, listing 3 of 3 here] | > 1 |
| H-CQSWECYWHYYG-NH2 (disulfide 1-6 (inferred)) [Hy-CQSWECYWHYYG-NH2] | > 1 |
| Ac-[dK]SCADWVCYWHTFG-OH (disulfide 3-8 (inferred)) [Ac-[(D)Lys]-SCADWVCYWHTFG-OH] | > 1 |
| KACADWVCYWHTFG (Ac-; [(D)Lys]; [β-Ala]; disulfide) [Ac-[(D)Lys]-[β-Ala]-CADWVCYWHTFG-OH] | > 1 |
| H-[βAla]SCADWVCYWHTFG-OH (disulfide 3-8 (inferred)) [Hy-[β-Ala]-SCADWVCYWHTFG-OH] | > 1 |
| CADXVCYWHTFG ([2-Nal]; -NH2; disulfide) [Hy-CAD-[2-Nal]-VCYWHTFG-NH2] | > 1 |
